Assays:
Details in all cases: none besides dye labels, binding temperature not given
[1] = tested on: PARP2 (mouse); assay: EMSA
[2] = tested on: PARP2 (mouse); assay: EMSA; remark: listed apart in the source
[3] = tested on: PARP2 (mouse); assay: spFRET

Substance: NP nucleosome (603, 187 bp)
- K half [1]: 40 nM
- K half [2]: 40 nM
- K half [3]: 19 nM

— doi:10.1101/2023.10.17.562808
